In PMC6409194 (European journal of pharmacology, 2019):

Target: calmodulin (UniProt P0DP23 1-149)
Experiment: other fluorescence titration

Kd: 3.8 µM
B1: BSα1A-AR333-361mut, FRET biosensor with K353Q/L356A SMD4JM (a.a. 333-361) of the human α1A adrenoceptor between ECFP and EYFPc (domain or fragment)
chain: FKKAFQNVLRIQCLCRKQSSQHAAGYTLH
